For test [1], the target named is T1, human CXCR5 (human, UniProt P32302 1-372).
T1 construct: Full length, on stably transfected cells (HEK-293, L1.2, R1610 and others), made with or without a C-terminal tag, or native on primary human B cells; also called hCXCR5; BLR-1
T1 sequence: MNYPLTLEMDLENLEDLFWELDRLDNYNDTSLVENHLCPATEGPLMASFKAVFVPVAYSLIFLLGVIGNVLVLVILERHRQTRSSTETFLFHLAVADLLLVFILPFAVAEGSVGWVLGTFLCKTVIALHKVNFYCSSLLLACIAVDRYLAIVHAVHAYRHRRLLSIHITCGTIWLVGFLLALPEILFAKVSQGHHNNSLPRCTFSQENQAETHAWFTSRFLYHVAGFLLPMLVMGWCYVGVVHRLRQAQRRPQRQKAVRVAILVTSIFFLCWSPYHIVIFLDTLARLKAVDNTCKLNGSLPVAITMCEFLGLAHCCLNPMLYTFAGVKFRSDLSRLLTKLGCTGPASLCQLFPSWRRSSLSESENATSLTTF
Briefly: flow cytometry, Alexa Fluor 647 labelled mAb on CD19-gated human B cells in whole blood. As to the method: (§1) 40C01-VH1-Vk3 and VH2-Vk3 variants were labelled with Alexa Fluor 647 dye using monoclonal antibody labelling kit from Invitrogen (Cat #A20186). Blood was collected in sodium-heparinised tubes and rested for 2 h at RT. Sodium azide (NaN₃) was then added to whole blood to a final concentration of 0.01%. Serial 1 in 3 dilutions of Alexa-Fluor 647 labelled-mAbs ranging from 60 μg/ml to 3 ng/ml were added to blood samples and incubated for 30 min at RT. Phycoerythrin (PE) labelled anti-CD19 (BD Pharmingen, cat#555413) and anti-human CXCR2 (R&D Systems, cat #FAB331P) mAbs and their respective isotype controls were used for gating B cells and monitoring CXCR2 expression on granulocytes, respectively. Labelled red blood cells were then lysed using the human erythrocyte lysing kit from R&D Systems (Cat # WL1000) and the blood cells resuspended in FACS buffer (PBS-1% BSA, 0.1% NaN₃) and analysed by flow cytometry on FACS Calibur 3 (BD Biosciences). The EC₅₀ and ECB, values were calculated by plotting the FL4 fluorescence (emission of Alexa Fluor 647 dye) as a function of the antibody concentration. […] No binding of the two 40C01 variants was detected on the granulocyte population which expresses CXCR2 (neutrophils).

The target of test [2] is T1, human CXCR5. Briefly: flow cytometry, Alexa Fluor 647 labelled mAb on HEK-293 cells stably transfected with human CXCR5; 40C01-VH2-Vk3, Alexa Fluor 647 labelled, HEK-293 cells with human CXCR5. As to the method:
Anti-CXCR5 40C01-VH1-Vk3 and VH2-Vk3 variants were labelled with Alexa Fluor 647 dye using monoclonal antibody labelling kit from Invitrogen (Cat #A20186). Binding of labelled mAbs to HEK-293 cells stably transfected with human CXCR5 was examined by a direct immunofluorescence assay. A total of 1×10⁵ stable HEK-293 cells over-expressing human CXCR5 were incubated with 1 in 3 serially diluted Alexa Fluor 647 mAbs ranging from 60 μg/ml to 0.33 ng/ml in FACS buffer (PBS containing 1% BSA and 0.1% NaN₃) for 1 h on ice. Cells were washed twice with FACS buffer and analyzed on FACSCalbur flow cytometer (BD Biosciences).

The target of the next test is T2, human CXCR2 (human, UniProt P25025 1-360).
T2 construct: whole, on cells; Native on the granulocyte population of human whole blood
T2 sequence (looked up): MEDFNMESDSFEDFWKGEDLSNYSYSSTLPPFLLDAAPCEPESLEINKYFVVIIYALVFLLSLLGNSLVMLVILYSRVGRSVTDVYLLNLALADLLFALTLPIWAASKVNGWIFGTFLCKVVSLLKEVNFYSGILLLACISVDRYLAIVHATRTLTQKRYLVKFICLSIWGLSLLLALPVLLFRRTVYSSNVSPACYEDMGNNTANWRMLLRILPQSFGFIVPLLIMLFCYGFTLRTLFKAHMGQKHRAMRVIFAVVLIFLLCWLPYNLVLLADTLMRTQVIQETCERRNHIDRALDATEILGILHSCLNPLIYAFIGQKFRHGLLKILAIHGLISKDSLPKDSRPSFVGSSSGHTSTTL
The test is described as follows: flow cytometry, Alexa-Fluor 647 labelled mAb in human whole blood. As to the method: as §1

The values below come from patent US20160115235A1 (ARES TRADING S A, published 2016).

B1: anti-CXCR5 40C01-VH2-Vk3 variant (isotype not stated in the example) (antibody, V domains shown)
VH: EVQLLESGGGLVQPGGSLRLSCAASGFTFSRSVMVWVRQAPGKGLEWVSGISPSGGVTRYAASVKGRFTISRDNSKNTLYLQMNSLRAEDTAVYYCARIRKEKTTISYFFDYWGQGTLVTVSS
VL: DIQMTQSPSSLSASVGDRVTITCRASQGVDAYVAWYQQKPGKVPKLLIYSTSTLASGVPSRFSGSGSGTDFTLTISSLQPEDVATYYCQSHNAAVVTFGQGTRLEIK
notes: also called Alexa-Fluor 647 labelled 40C01-VH2-Vk3
For B1, the EC50 in the test with human CXCR5 [1] worked out at 7.22 nM; with human CXCR5 [2], 4.6 nM. Besides, the binding result with human CXCR2 is “no binding (tested: 60 µg/ml to 3 ng/ml tested)”.
